Assay results published in paper PMC9284671 (Structure (London, England : 1993), 2022).

Key:
[1] = molecular target: hCoV-OC43 full-length spike (hCoV-OC43 (AAT84354.1, cross-referenced …, UniProt P36334)); experiment: flow cytometry on cells
[2] = molecular target: SARS-CoV-2 full-length spike (WA-1) (SARS-CoV-2 WA-1 (GenBank QHD43416.1), UniProt P0DTC2); experiment: flow cytometry on cells
[3] = molecular target: MERS-CoV full-length spike (EMC) (MERS-CoV EMC/2012 (GenBank AFS88936), UniProt K0BRG7); experiment: flow cytometry on cells
[4] = molecular target: SARS-CoV full-length spike (Urbani) (SARS-CoV Urbani, UniProt P59594); experiment: flow cytometry on cells
[5] = molecular target: hCoV-HKU1 full-length spike (hCoV-HKU1 isolate N1, UniProt Q5MQD0); experiment: flow cytometry on cells
[6] = molecular target: T1, SARS-CoV-2 spike S2 subunit (SARS-CoV-2 (WA-1 / Wuhan-Hu-1), UniProt P0DTC2); experiment: far-Western, overlay or dot blot
[7] = molecular target: T2, SARS-CoV spike peptide #154 (PELDSFKEELDKYFKNH) (SARS-CoV); experiment: far-Western, overlay or dot blot
T2 chain: PELDSFKEELDKYFKNH

[8] = molecular target: hCoV-HKU1 S2P (pre-fusion-stabilized soluble spike) (hCoV-HKU1 isolate N1, UniProt Q5MQD0, stabilised); experiment: ELISA
[9] = molecular target: SARS-CoV-2 S-dTM (soluble spike protein residues 1-1,206 of wild-type WA-1 strain) (SARS-CoV-2 WA-1, UniProt P0DTC2); experiment: ELISA
[10] = molecular target: hCoV-OC43 S2P (pre-fusion-stabilized soluble spike) (hCoV-OC43 (AAT84354.1, cross-referenced …, UniProt P36334, stabilised)); experiment: ELISA
[11] = molecular target: T1, SARS-CoV-2 spike S2 subunit; experiment: negative-stain electron microscopy

Measured: binding result

B1: WS6 (monoclonal antibody, IgG) (antibody, V domains shown)
VH: EVQFQQSGTVLARPGASVKMSCKASGYTFTNYWIHWVKQRPGQGLEYIGGTYPGNGDTTYNQKFKGKAKVTAVTPTSTAYMDLSSLTNEDSAVYYCTRTGSYFDYWGQGTTLTVSS
VL: QIVLTQSPAIMSASPGEKVTISCSATSSVSYIYWYQQRPGSSPKPWIYRTSNLASGVPVRFSGSGSGTSYSLTISNMEAEDAATYYCQQYQSYPPTFGAGTKLELK
not listed: [11]
binds: all other assays above

B2: WS6 Fab (antigen-binding fragment of WS6) (Fab, V domains shown)
VH: B1 VH
VL: B1 VL
binds: [11]
